Test: protease stability score; higher = more stable; yeast display proteolysis, trypsin and chymotrypsin;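 also: log10 excess protease needed over predicted unfolded state with 0 meaning unfolded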

Row | Sequence | protease stability score
1 | DNDAREAARRLLDAWRTGDEDTVRDMADENAKVTVGDKTIQGRDHLVDWIHQHYHEQRVDVKSVHMDAQGDKVDVKLDAVSDRNGQPRRYVEHVKITMKNGKMKSLEMHREG | 0.753
2 | DNDHWRKIATDMIKALQEGDRQKVKKLVDKDAKARIGDRDVHGREHIVTLLYEMQQRIDHMQLVDVKVRGEEVVVRYHAKFNGKVVDVSITLHFRNGKVKEMRVDPRAVESLKK | 1.22
3 | DNDKLAKDAVDTMDEVLQDGDEKKLNDLFDPNARLRVGDHEIHGREQIHDWIKTRLNQIDHIEMRIVHVRREGEKALARVTFVNQHNGKQDEREAVYRFTVENGRATFEEVNIK | -0.116
4 | DNDRVRKAHKLMRVIETGDPDKVNEYVDPNVHVEYGDKTIHGREELKKFIEKERHEMRVELKRVSADATGNKVDIKVHRVLDKNGKPETNNVRIIIVWDGNKIKSVSFQKDK | 0.849
5 | DNDTQHRLAERFNHAVETGDPDKIMKLVPEDVRFTVGDKEYHGRESLSKVIKDFRDHADRVKVESVRVNNGRIDVQMRYNRNGQDRVMTFLLTVHNGKIENVNIQSG | 1.58
6 | DNEAARSARRNLKQIERGNEHKVREMADKNAHVRVGDKDLHGREDISTWVKKLKEEMRVRFDLRRVNDKGSTVDLDVTLEMTVNGKPVTMKVTAKLSIHNGKIQSLIWNISDEQKEQRKG | 0.336
7 | DNEDAKRVVKLAEHNDFKKWAENADKDVRMKVGDKTWHGRSQFSTAVERLQKNIDHVDLRSVKTHNGRVTIKEQQEVDGRKTDVRFRLQVHNGHIKRVEVQVTDEEDKKTMEKLLS | -0.23
8 | DNEDAQQAIQMLKAELDGDEERAAQLMDPNARFNIGDKEIHGRETFQHWLREVKKHMHVKIDRLEIDVEGDKVDVRMEFVQNHNGKPHRAEATVEVRAENGHVKEVTVDVKG | 0.551
9 | DNEEEAKKFVEELKRQYDEGNEHQIANQAPENATARVGDKNYHGRENVETYLRQIVRRADTVEIRIRSVEVHGDNVVVDFHYVLEYNGTRRNVRMKLVLDDVNGRKVALVIVQS | 0.572
10 | DNEEHKVLEELIRAIQEGNEKDIKRLIDPNARVNVGDKTYHGREQIVKWWFDLQQELEFEIDIKRWHVNNGQIRADIKYVRNNNGKPESFRADMQVTASNGKFKSVSVHETK | 1.43
11 | DNEFREEVKKAIDTGDPLEMVRQADKDVEVHVGDKYWHGREQVEKLMTLWKEQVDHLHVDRITHEPGRVKVDAVAQFNGVEFRFNMVIHAHNGKIKSVQFKNTDEDVKKKLEKILD | -0.288
12 | DNEKALERAEEAARAVARGNEDELRKLAPPDVSAQYGDHRINGMDQVVEQIKEMRRAVDHIKIQTIRKNGNSVTLTVELTYNGQQMHMHVEVEVHNGELKHVRMHVTDEERWRRQES | 0.855
13 | DNEKVARNAADKLMTAINTGDPDQFVKLFDENAHVDVGDKTWRGRDKLKEWARKIVEQVDHLRARVTHMDVDGDKASVVFVVTLNKNGKEHSEQHEATAEVSGEQAVFKSLRHK | 1.38
14 | DNENVNHVKTWFQNIQENNPDELIKLIDKDARLRVGDKEFHGREQAKKEIEKRIRHIELEFKHVQVDHHNGRVVAHAVYTQNRNGRPKKVNVRYVFQIHNGKIKRAEQDEDG | 0.263
15 | DNETVDEALKAFNKNDERNMMRLADENAEMEIGDTEYHGQEQVQTLLQKLNQQVDHREFHSIETEPNRIRVDYRAVFNGRDIRVHVHLEFENGRLTRVRFDVRDPRQQKHLQDLLK | 0.344
16 | DNEVAHNIMRAFKQQWRGNEDKALELMDPNAEVHVGNKQIHGMEEWVRRTAHKARRARVKVSRIDVTVHNGKVRIKMNYTVSVNGKPISWHADITVQADNGRAKHITQQVPEDLEERERG | 0.112
17 | DNKDQARRLLNELRKAMKQNDEDRMRQLMDPNARATYGDKTVHGREELAERIIKEVKRADHVDLQVDDIKTQGNKLTVEVTIRIDVNGKTINTRYVLYAEVSNGRFNIRQIHQQ | 0.544
18 | DNKERAEDWFRHMTEIWKQNDPDELQNNADPNVRVDVGDKQVQGRDKYKTQMETFKNRADHISIELKNIDVQGERIVVNFEATYDVNGRKEDKTAHILARVHNGHIVIKEVKNG | -0.073
19 | DNQDARKLQEYFRNMVTGNEQRAMQYMDKDVTVHVGDKVFHGMERAVKTLVQRLKEIRVHYKFKQVSVQGNKVNIKADVEEDDNGRPETKRLEMDVEWHNGKVKKVVIKNDR | 1.49
20 | DNRLQRWADRWLEVVETGNPEEIRKLVDKDVDVEIGDQQYKGQDHLSKQWKDFHKHAKLEIKDYKIDVEGDRLVINVDAVYNVNGQPRRNRYNLEFKLHNGKVRSVHFRIDPDEQRKMDS | 1.44
21 | DNSELAQQRWRDLRKAISENDPKTARDLFDPNVRIEVGEKTLHGRKAASDFVKEIKKDYDHAYLQVTDVDVQGEHVHAHVVLHAEHNGKTTSVEMEMEAVFQGDKLRVRMMRKS | 0.641
22 | DNSVKKIVEEFWKAVKHGDPDKLRELADPNAKFDVGDKVLHGRDRAAKFLHDQHNNARFDITSLRIRVTNGRADIDVKLHVEHNGEPKTSSAKVIVRVRNGRMTELKIRERS | 0.637
23 | DNTHLRMMEQLLKNRSTGDERKVRENADKHVKIDVGDKRLHGREHLQKQQESERTQADVEIQVQTIHDHNGQIVMQFEITVNVNGRPERDTWTLVAEADNGRLKKLSLDLDPDKLKTMES | 0.327
24 | DNTIKRKFHDLIRAWQTNDENRYMQLFDPNVKIRVGNQQFHGREDWSKWFREQMTHLRNDFTVKSLEVDGDKVVADIVAVLSINGRPNKMRVDYRMTVHNGKIKSAEMRFSHEIETKIEQ | 1.46
25 | DPKKAFKVAEEAMKYFVKGNVDELKKILNPDGTARVADHETKGVEEIMKLLQRMKKHGVQVEVKEVRREGNQVEVHTVYHDGDETATLTVQYKAQNGKVDHIKVQYNERMKKIWEKG | 1.2

Row | Sequence | protease stability score
26 | DPKKAHEVAEEVMKAFVNGNDEQVKRLLKPDVTAKVADRETQGPEQIVRYLRRFDKLGVQYHEEETRKEGNRVEVHTKYKKGDQEATVTVVYEADNGKVDRIEVRYDEEMKKLFEKG | 0.279
27 | DPKKDLKVAEEVLKAMYSGDDEKAQKLVDPSVKAQTGDQKYHGTDDIKKMVKTFKDYGVEHEEKETKVDGGYAEVVIQAKIGNDEVEAKWRVYAKDGRVDYVQADITEKLTKLMQHG | -0.445
28 | DPKKFHKAAVLLAQAAMNGDYKRVVELYKPDARLTLVDQEVQGQEQIKKHAKKFYDRGKRFQFKRVEVTGDYVKLQFDIEVGGTRVTFEARVHAQDDTVDEYELRFDDTAREMQERG | 0.073
29 | DPKKLKEAVEKVIQAMEKGNVEEVVKLYKPDVKFVLGDQEFRGREDVKKQAKKFYTKGARFQLRKVEVKGDKVEVVVDVEVGGTRKTFKFTLKVEDDTVDEYEIRFTEEAKKAKEKG | 0.839
30 | DPKKLYKVAIRVVRAAVSGDVEKVVKMYKPDGKLTLGDQELRGREQIKKYADKFYRKGKRFQADHIRVTGNRVEVIMKFTLGGQTVTFQFYIKLKDDQVDEYEFRFNEEAEKMMRTG | 0.276
31 | DPKKMKEIADKMAKAVLNGNEEEVKKFGAPNVEAEVADQRTQGVDEIVKMLQKVKRMGMEVHTEEKREEGDFIEVHTKYRRGDTEATMTVQYYADNGKVKKIKVEYDRDAKKLFKHG | 0.232
32 | DPKKVEDVAKKVAKAFQDGNEEELKKHLDPTGRAKIADEETQGIEQIIKKLKKVMKLGVQVENKETRYEGNRVEFHTEYRDGDKQATMTVVYHADNGKVKEIRVQYDRDAKEMYEKG | 0.658
33 | DPKRTVKVAEEAAKILYNGDSDKAKKVFKPDLRVKIADRETQGVEQIVKELEKFQKIGVERETKEKRTEGDKVQFHTVYRNGSDQAKMTVEYQAKDGKVDRIQVDYDEKAKKIQEDG | -0.407
34 | DPKRVRQVAKEVAKAFLNGDKDKVKKYGDPNVKAKVLDEETQGVEQIMRELEKFMKLGVQYETKEVREEGDYVEVHTEYRDGDTTAKMTVIYKARDGKVEHLEVHYDRDARKIFRKG | 0.144
35 | DPRKVKDAVRKVVEAMMNGDVEKIVKLYKPDGELYLGSQKVRGQEQVEKEAKKFYDKGARFQVKEQHVKGDNATVVFDMTANGQTVTFQFEIKVKDDTVDKYEVRFTEKADELRRKG | -0.136
36 | DPTELLKYAEKLLEALMKGDSELATKMGKPDVEVQTGDQKYKGQDDLRKVVKKIKDYGVENKIDETEKDGGQVKVKIVARIGDREYTFTWVAEAENGKVRKVQLDIPEDLEKDLKHG | 0.739
37 | DPTKALRLADTALRAFANGNSDQVKQHLKPDVRARVVDEETQGVDQIVKQLQHFVKVGVQRQVDEVRHEGNQVEAHTQYQVGDNQATMTVVYRAQNGKVDEIEVRYDERAKKIFEQG | -0.115
38 | DPTKVDHVARRVLEYMVKGNAEEVRKMVKPNAEAQTGDQKYKGQDEIHKMVKTLKDYGIEVKRDEVRVDGGHAQLKIRANIGDRTYTARWQVEAKDGKVDRIQMDISEDLKKAIKHG | -0.022
39 | DQDAARIYKHQVEAIKTGNPSKVMELADPNVEFHVGDRVITGREQLRNDVDRHKKQMRVEIRIEDITDQGEFANIRANVTIDVNGRPKTSRVNMRVFAHNGKVKSQDFQTSQ | 0.52
40 | DQDAIRRLDEALRAEETGNEKQLKDLFDPNVEFVIGDDEYHGMDSYAKDVRRRKQNMRDHIEHVDMHDNGSQIHIRYRQVANINGTPVKYEITATAEVHNGRFKRMEYRIDEDEQRKLDS | 0.026
41 | DQDALRKWEEILKAMETGDREKVAQLVDPNARVVYGDKEVRGRESIRKRVKEIRDELRFSMELKRFDDHNGRASATLKMNAEHNGQPIHRTASVEIEVQNGRIKSMEIQLRG | 0.062
42 | DQDAQRQLREAMKDEESGDHRSIRENIDPNAKLDVGDKDVTGRENVAKEIKHQVDESRVKIDHYRMEVHGDRVTVTFNAVETHNGQPRRKTYQVIFKIHNGQFKKIMMRTSQ | 0.546
43 | DQDEIRQNARDLATGDPDRAREQADKHVRVEIGEKTLHGREKLEEWMKHIHERIDHNRVHDIQIDNGRVEASVNVDINGKKVVFTIVAEFDNGKIQRVQVDVRDHEVQKVMEEIDS | 0.821
44 | DQDEQRHQMEEVRKAFQRGDNEKFERLADPNVRYQVGDKTYHGREQASKALSDIREQVDHLEIKDYKIHGNKLDINVVVDINGEKHEYRIIVHIHNGRITRYQFQST | 0.73
45 | DQDHEQKMMTRVAHAFDNGDDQSLARLMDPNVSVTVGDKSVHGRERVRELVNEWRHRVDHIKLDRVEHQGNKAKFHITVEHNGERDQVDLEIEARNGKVKNVVLHRP | 1.26
46 | DQDHLRELVHTFNRLLEQGNFDELANMFDKNARVDVGDKSYHGQEQVRTWFKHLRQRVDHFHVKHYKVRGDEATIHVIMDVNGQKRNVTVRLSFSNGRADHIQIDPDHKQELDK | 1.56
47 | DQDLHTRFKTWVENLHEGDEDNLKSLADPNAKIKVGNKEYHGMDEFKKDQKRRRDQMRIQIEIDSVTVQGNKATAEFEMTLDVNGKPVRMRFRVQFEVHNGTIQSWEAQVSPEQQEKLDR | 0.967
48 | DQDQMRKAEQAMRAEQKNNKEELDELFDPNVEVEVGDFNVEGREEMNKEVDDLKKQARFHWSLHHVEVRGNRMHFKLRFEIQVNGQPRKNTANVEIEAHNGKFTSKTNRIDPRFVKTLLG | 0.55
49 | DQDRLEEVRRRMTTGNPDDLRNLMDEDVTVQYGDKEVHGRDEAVDRLEKLLRQVDHLRIDSMDAHGDEFNVHLSAVVNGRQVNFVVSLRIHNGKIKHFMQQATDEDQQKRLEHAWD | 1.23
50 | DQEAAEILKRFVKAIKTGDPDEAKEQMDKDVKVRVGDKVIHGREEVAKEVEQTNRNLRLEVEINDYTVDGDKVTIRMRIVTNENGRPDVKTVKVTAHAHNGRLVHLEIQSDS | 0.778

Reference: the NTF2 design screens of Basanta et al. (2020)
